Test results as given in IntAct's records for PubMed 17070842.

B1: Signal-regulatory protein beta-1 (Homo sapiens), O00241 (parent)
chain: MPVPASWPHLPSPFLLMTLLLGRLTGVAGEDELQVIQPEKSVSVAAGESATLRCAMTSLIPVGPIMWFRGAGAGRELIYNQKEGHFPRVTTVSELTKRNNLDFSISISNITPADAGTYYCVKFRKGSPDDVEFKSGAGTELSVRAKPSAPVVSGPAVRATPEHTVSFTCESHGFSPRDITLKWFKNGNELSDFQTNVDPAGDSVSYSIHSTARVVLTRGDVHSQVICEIAHITLQGDPLRGTANLSEAIRVPPTLEVTQQPMRAENQANVTCQVSNFYPRGLQLTWLENGNVSRTETASTLIENKDGTYNWMSWLLVNTCAHRDDVVLTCQVEHDGQQAVSKSYALEISAHQKEHGSDITHEAALAPTAPLLVALLLGPKLLLVVGVSAIYICWKQKA
B2: Tyrosine-protein phosphatase non-receptor type substrate 1 (Homo sapiens), P78324-4 (parent)
chain: MEPAGPAPGRLGPLLCLLLAASCAWSGVAGEEELQVIQPDKSVLVAAGETATLRCTATSLIPVGPIQWFRGAGPGRELIYNQKEGHFPRVTTVSDLTKRNNMDFSIRIGNITPADAGTYYCVKFRKGSPDVEFKSGAGTELSVRAKPSAPVVSGPAARATPQHTVSFTCESHGFSPRDITLKWFKNGNELSDFQTNVDPVGESVSYSIHSTAKVVLTREDVHSQVICEVAHVTLQGDPLRGTANLSETIRVPPTLEVTQQPVRAENQVNVTCQVRKFYPQRLQLTWLENGNVSRTETASTVTENKDGTYNWMSWLLVNVSAHRDDVKLTCQVEHDGQPAVSKSHDLKVSAHPKEQGSNTAAENTGSNERNIYIVVGVVCTLLVALLMAALYLVRIRQKKAQGSTSSTRLHEPEKNAREITQDTNDITYADLNLPKGKKPAPQAAEPNNHTEYASIQTSPQPASEDTLTYADLDMVHLNRTPKQPAPKPEPSFSEYASVQVPRK

Variants of: B1
Details: with cd47_human CD47, Q08722
Target sequence in this assay (Q08722 whole entry): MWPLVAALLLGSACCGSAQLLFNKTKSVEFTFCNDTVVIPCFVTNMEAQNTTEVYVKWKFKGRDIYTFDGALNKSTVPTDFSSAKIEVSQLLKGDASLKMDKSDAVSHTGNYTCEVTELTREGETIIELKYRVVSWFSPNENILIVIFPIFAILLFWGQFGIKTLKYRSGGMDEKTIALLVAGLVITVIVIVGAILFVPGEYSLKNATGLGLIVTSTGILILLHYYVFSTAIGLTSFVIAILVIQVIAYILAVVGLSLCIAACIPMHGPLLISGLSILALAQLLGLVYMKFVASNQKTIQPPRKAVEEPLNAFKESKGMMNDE

Row | effect of a mutation on the interaction | Variant
1 | causing an interaction | M56V;M66Q;L101M
2 | causing an interaction | M56V;M66Q;A73P
3 | causing an interaction | M56V;M66Q

Variants of: B2
Details: with cd47_human CD47, Q08722
Target sequence in this assay (Q08722 whole entry): as above

Row | effect of a mutation on the interaction | Variant
4 | disrupting interaction strength | A57M
